Experimental data taken from publication PMC5786281 (Oncogene, 2017).

Target: EZH2 (endogenous) (human (endogenous in MDA-MB-231, …, UniProt Q15910 1-746))
Assay: co-IP

Chain of EZH2 (endogenous) (human (Q15910 whole entry): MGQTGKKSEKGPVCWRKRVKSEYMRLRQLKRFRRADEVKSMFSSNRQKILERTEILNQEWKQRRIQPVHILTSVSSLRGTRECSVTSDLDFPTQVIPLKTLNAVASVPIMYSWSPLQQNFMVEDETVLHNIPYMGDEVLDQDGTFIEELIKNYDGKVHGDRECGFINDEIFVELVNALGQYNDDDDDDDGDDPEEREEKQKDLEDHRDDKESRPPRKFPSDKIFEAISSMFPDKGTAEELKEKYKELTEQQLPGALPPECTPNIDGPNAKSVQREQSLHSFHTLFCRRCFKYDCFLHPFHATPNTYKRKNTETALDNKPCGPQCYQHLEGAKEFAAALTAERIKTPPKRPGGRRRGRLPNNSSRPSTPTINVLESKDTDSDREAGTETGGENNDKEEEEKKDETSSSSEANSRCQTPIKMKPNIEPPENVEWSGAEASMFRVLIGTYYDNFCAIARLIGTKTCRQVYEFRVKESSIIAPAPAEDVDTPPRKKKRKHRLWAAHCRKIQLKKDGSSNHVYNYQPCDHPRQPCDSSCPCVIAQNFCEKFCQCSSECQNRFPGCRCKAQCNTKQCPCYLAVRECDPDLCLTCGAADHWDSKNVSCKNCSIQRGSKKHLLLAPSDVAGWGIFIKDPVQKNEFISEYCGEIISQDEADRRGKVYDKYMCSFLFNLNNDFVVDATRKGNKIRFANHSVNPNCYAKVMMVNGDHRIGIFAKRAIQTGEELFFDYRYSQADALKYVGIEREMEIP

fold binding with PARPi against without PARPi: ~4.4 times
B1: EED (endogenous) (natural protein)
chain: not shown
